System: human Mcl-1
Experiment: In vivo Mcl-1 degradation in EMT6 syngeneic breast cancer model (western blot)
Details: EMT6 cells over-expressing human Mcl-1 in BALB/c mice; 20 mg/Kg i.v.; 8 hours after treatment; vs control mice (Iso-mAb)
Description: FIG. 7. Netrin-1 interference triggers Mcl-1 degradation in vitro and in vivo. (A,B): Netrin-1 silencing triggers Mcl-1 degradation. Breast cancer MCF7 cells were transfected with scramble (siCTRL) or netrin-1 (siNet) targeting siRNAs. 48 hours after transfection, cells were lysed by scraping and sonication in SDS-containing buffer. Protein levels of Mcl-1, netrin-1, and UNC5B, as well as B-actin and Ku80, used as housekeeping genes, were evaluated by western blot (A). Relative Mcl-1 protein levels, normalized to β-actin or Ku80, are shown in (B) (n=2, *** p<0.001, **** p<0.0001, ordinary two-way ANOVA with Sidak's multiple comparisons test). […] Protein levels of Mcl-1 were then evaluated by western blot (C). […] Mcl-1 protein was quantified in paraffin-embedded slices on paired C1D1 and C3D1 biopsies and compared with clinical benefit (stable disease, SD, or progression disease, PD, at 6 weeks). Mcl-1 intensity was assessed in all, PD or SD biopsies (E) (n=6, Wilcoxon test). […]
For immunoblotting analysis, cells were lysed by sonication in SDS buffer (10 mM Tris-HCl pH 7.4, 10% glycerol, 5% SDS, 1% TX-100, 100 mM DTT) in the presence of protease inhibitor cocktail (Roche Applied Science). […] Protein band quantification was performed with Image Lab 6.1 software (Bio-rad), considering the adjusted volume intensity normalized with housekeeping genes. […]

B1: NP137: humanized anti-netrin-1 monoclonal antibody, VH SEQ ID NO: 22, VL SEQ ID NO: 16, human IgG1 (antibody, V domains shown)
VH: QVQLQQSGPGLVKPSQTLSLTCAISGYTFTSYNMHWVRQATGQGLEWMGAIYPGNGDTSYNQKFKGRLTISKDTSKNQVVLTMTNMDPVDTATYYCARGGTGFAYWGQG
VL: DIQMTQSPSSLSASVGDRVTITCKASQSVSNDVAWYQQKPGQAPRLLIYYASNRYTGIPPRFSGSGYGTDFTLTINNIESEDAAYYFCQQDYSSPWTFGQG
modifications: human IgG1 constant region; humanized variant; MISC_FEATURE - CDR according to IGMT
Mcl-1 protein levels in tumors: significantly reduced Mcl-1 protein levels

— patent US20250215071A1, “Novel Mcl-1 inhibitor and combination of Mcl-1 and a BH3 mimetic, such as a Bcl-2 inhibitor” (NETRIS PHARMA, priority 2022, published 2025)
